No end group written: not given here.
Columns and labels:
[1] = target: T1, hemagglutinin of influenza A virus X31 (A/Aichi/2/68 H3N2) (influenza A virus A/Aichi/2/68 H3N2 (X31)), P03437
[2] = target: T1, hemagglutinin of influenza A virus X31 …; remark: listed apart in the source
[3] = target: T1, hemagglutinin of influenza A virus X31 …; experiment: cell-based or functional assay
[4] = target: T1, hemagglutinin of influenza A virus X31 …; experiment: SPR competition, virus preincubated with peptide, immobilised fetuin

| Binder | Kd [1] [µM] | IC50 [2] [µM] | Hemagglutination inhibition (IC50, HAI) [3] [µM] | Mean Ki(HAI), hemagglutination inhibition assay, human erythrocytes [3] [µM] | fold lower IC50,RB than the reference peptide SEQ ID NO:1 [4] [fold] |
| --- | --- | --- | --- | --- | --- |
| KKKKFYDYDVFY (not fully specified (C-terminus)) [reference peptide with SEQ ID NO:1 (FYDYDVFY), N-terminal (Lys)4, C-terminal amide] | 59 | 90 | 163 | 235 | – |
| KKKKFYGYDVFF (not fully specified (C-terminus)) [peptide with SEQ ID NO:28, N-terminal (Lys)4, C-terminal amide] | – | 20 | 18 | 31.9 | 4.5 |

Reference: patent publication US20180072770A1, “Influenza Virus Binding Peptides” (priority 2014, published 2018)
